Reference: patent US20130177572A1 (X BODY, published 2013)
Each block holds one binder with its values, some of them ahead of it.

How the values were obtained:
[1] = molecular target: T1, mouse PDGFR-hIgG1-Fc chimeric fusion protein (mouse; human, UniProt P05622 32-530, limits assumed); test: SPR (Biacore T100), mouse PDGFR-hIgG1-Fc captured by anti-hIgG1 Fc, 1:1 fit
T1 construct: also called mouse PDGFRβ; mouse PDFGR; not shown: human IgG1 Fc
T1 sequence (looked up): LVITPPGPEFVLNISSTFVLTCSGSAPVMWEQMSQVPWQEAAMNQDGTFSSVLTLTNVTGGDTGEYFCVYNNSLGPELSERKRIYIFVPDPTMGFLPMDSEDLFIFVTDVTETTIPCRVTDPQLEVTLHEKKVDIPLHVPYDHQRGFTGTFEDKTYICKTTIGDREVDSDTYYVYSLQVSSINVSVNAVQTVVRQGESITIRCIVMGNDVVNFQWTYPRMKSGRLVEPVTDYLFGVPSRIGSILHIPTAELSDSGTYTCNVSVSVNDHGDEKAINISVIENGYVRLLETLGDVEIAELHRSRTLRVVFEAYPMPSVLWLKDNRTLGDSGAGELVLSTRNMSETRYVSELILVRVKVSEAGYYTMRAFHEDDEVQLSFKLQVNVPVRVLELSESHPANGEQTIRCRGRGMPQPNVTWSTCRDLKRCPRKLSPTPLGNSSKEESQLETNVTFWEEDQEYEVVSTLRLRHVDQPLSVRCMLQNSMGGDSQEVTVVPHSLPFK
Protocol: (§1) The R4 framework shuffled human and mouse PDGFRβ enriched VH domain pool selected in Example 2 was cloned into E. coli expression vectors, produced and purified. The binding kinetics of the VH domains to human and mouse PDFGR was determined using surface plasmon resonance on a Biacore T100. Briefly, human and mouse PDGFR-hIgG1-Fc chimeric fusion protein were separately immobilized using a Series CM5 sensorchip (CM5) coupled to anti-hIgG1 Fc monoclonal antibody. For each cycle, the PDGFR fusion protein was first captured, followed by the injection of VH for 115 seconds at a flow rate of 100 uL/min (association). Immediately following the association phase is a dissociation phase of 600 seconds. The surface was regenerated at each cycle with a single injection of 3M MgCl2 (10 uL/min, 60 seconds). Multiple concentrations of VH domain were injected (0.55 nM-40 nM) and the resulting sensorgram were analyzed with T100 Evaluation software. The binding kinetics was determined using 1:1 binding curve fitting.

[2] = molecular target: T2, human PDGFR-hIgG1-Fc chimeric fusion protein (human, UniProt P09619 33-530); test: SPR (Biacore T100), PDGFR-Fc captured by anti-hIgG1 Fc, VH injected, 1:1 fit
T2 construct: For the IgG assay it was captured by an anti-6His antibody, which points to a His tag; also called recombinant human PDGFR-hIgG1-Fc chimeric fusion protein (R&D, #385-PR-100/CF); human PDGFRβ; not shown: human IgG1 Fc
T2 sequence (P09619 33-530 limits assumed, change not shown): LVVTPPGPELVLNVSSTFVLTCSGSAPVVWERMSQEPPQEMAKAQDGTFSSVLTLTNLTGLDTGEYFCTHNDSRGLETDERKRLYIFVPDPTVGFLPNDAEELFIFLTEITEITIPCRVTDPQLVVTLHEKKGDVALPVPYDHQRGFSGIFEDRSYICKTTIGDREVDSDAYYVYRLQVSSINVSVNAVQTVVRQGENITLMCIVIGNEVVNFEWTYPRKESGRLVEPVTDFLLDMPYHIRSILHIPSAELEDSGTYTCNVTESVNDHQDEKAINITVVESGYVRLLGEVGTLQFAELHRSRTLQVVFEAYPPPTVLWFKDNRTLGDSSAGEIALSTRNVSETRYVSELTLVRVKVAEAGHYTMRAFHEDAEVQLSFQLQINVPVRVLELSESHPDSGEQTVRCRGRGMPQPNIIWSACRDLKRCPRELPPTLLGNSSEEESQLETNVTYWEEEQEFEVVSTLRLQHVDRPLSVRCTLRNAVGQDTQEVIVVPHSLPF
Protocol: as §1

[3] = molecular target: T2, human PDGFR-hIgG1-Fc chimeric fusion …; test: SPR (Biacore T100), human PDGFR-hIgG1-Fc captured by anti-hIgG1 Fc, 1:1 fit; the text prints it rounded as 93 pM
Protocol: as §1

[4] = molecular target: T2, human PDGFR-hIgG1-Fc chimeric fusion …; test: SPR (Biacore T100), human PDGFR-hIgG1-Fc captured by anti-hIgG1 Fc, 1:1 fit
Protocol: as §1

[5] = molecular target: T2, human PDGFR-hIgG1-Fc chimeric fusion …; test: SPR (Biacore T100), PDGFR-hIgG1-Fc captured by anti-hIgG1 Fc, VH injected; series 0 to 120 in the legend box, unit inferred
human PDGFRβ [6] = molecular target: T3, human PDGFRβ (human, UniProt P09619 33-530, limits assumed); test: solution equilibrium binding: 35S-Met labelled in vitro translated protein, human PDGFRβ titrated, capture on protein A beads, scintillation counts
T3 construct: also called hPDGFRβ; recombinant human PDGFRβ
T3 sequence (P09619 33-530 limits assumed): as the sequence (P09619 33-530 limits assumed, change not shown) above
Protocol: (§2) The affinity of several scFvs was determined by solution based equilibrium binding assay. Specifically, 120 pmol of scFv RNA was translated into free protein with ³⁵S Met incorporated. The translated reaction mixture was 3-fold diluted in binding buffer containing 1×PBS with 0.025% triton, 1 mg/mL BSA and 0.1 mg/mL sssDNA. Human PDGFRβ was diluted in the same binding buffer to final concentrations from 100 nM to 0 nM. The diluted scFv mixture was incubated with hPDGFRβ in final volume of 100 ul on Kingfisher plates (Thermofisher Scientific, 97002084). Following incubation, 25 ul of protein A magnetic beads (Invitrogen) were used to capture the PDGFRβ from solution. The captured PDGFRβ was washed and eluted in kingfisher Reader (Thermofisher Scientific). The amount of scFv (labeled with ³⁵S Met) bound to the magnetic bead-immobilized hPDGFRβ was counted using a scintillation counter and the Kd was calculated with Graph Pad Prism 5.

mouse PDGFRβ = molecular target: T4, mouse PDGFRβ (mouse, UniProt P05622 32-530, limits assumed); test: 35S-Met labelled in vitro translated VH, binding to target
T4 sequence (looked up): T1 sequence (looked up)

[7] = molecular target: T2, human PDGFR-hIgG1-Fc chimeric fusion …; test: SPR competition (Biacore T100): captured PDGFR-Fc, VH 0.46-60 nM, then 10 nM PDGFBB
Protocol: Briefly, human PDGFR-hIgG1-Fc chimeric fusion protein was immobilized using a Series CM5 sensorchip coupled with anti-hIgG1 Fc monoclonal antibody. […] For each successive cycle, the PDGFR fusion protein was first captured then VH domain was then injected for 120 seconds. […] The surface was regenerated at each cycle with a single injection of 3M MgCl2 (10 uL/min, 60 seconds).

[8] = molecular target: T2, human PDGFR-hIgG1-Fc chimeric fusion …; test: SPR (Biacore T100), PDGFR-Fc captured by anti-hIgG1 Fc, 1:1 model
Protocol: IgG1 to human PDFGR were determined using surface plasmon resonance on a Biacore T100. Briefly, recombinant human PDGFR-hIgG1-Fc chimeric fusion protein (R&D, #385-PR-100/CF) was immobilized on a Series CM5 sensorchip coupled with anti-hIgG1 Fc monoclonal antibody (for the VH and ScFv assays) or anti-6His antibody (for the IgG assay). […] The data was analyzed using the Biacore T100 analysis software using a 1:1 model. Mass transport was checked and avoided to allow accurate measurements. All data was double referenced according to Biacore standard protocol.

human PDGFRβ [9] = molecular target: T3, human PDGFRβ; test: solution equilibrium binding: 35S-Met labelled in vitro translated protein, human PDGFRβ titrated (0 to 20 nM), capture on protein A beads, scintillation counts
Protocol: as §2, with “Human PDGFRβ was diluted in the same binding buffer to final concentrations from 100 nM to 0 nM.” left out

human PDGFRβ [10] = molecular target: T3, human PDGFRβ; test: ELISA: plate coated with 2 ug/mL human PDGFRβ or human IgG, crude scFv lysate, anti-flag-HRP, OD450
Protocol: A PDGFRβ binding ELISA assay was performed to assess the binding of the scFv to immobilized PDGFRβ and to determine the EC50. Specifically, 2 ug/mL of human PDGFRβ and human Fc or IgG in PBS was immobilized on Maxisorp plates at 4° C. overnight. The plate was then washed and blocked with superblock. In vitro translated crude scFv lysate was diluted 1:3 in 1×PBST. 100 ul of the diluted scFv lysate was loaded into each well of Maxisorp plates and incubated for 1 hour at room temperature. scFv that bound to immobilized PDGFRβ was detected by anti-flag antibody-HRP at 1:5000 dilution and a TMB substrate. The plate was read on a Molecular Device plate reader with end point assay at OD 450 nm.

B2: XB1511 VH domain (other)
VH: QVQLVQSGAEVKKPGSSVKVSCKASGGTFSSYAISWVRQAPGQGLEWMGGIIPIFGTANYAQKFQGRVTITADESTSTAYMELSSLRSEDTAVYYCAIHGGDRSYWGQGTLVTVSS
notes: Isolated (unpaired) human VH domain; also called clone A4; A4 XB1511
Kd [5]: 14.7 nM
Kd (human PDGFRβ [6]): 31.9 nM
binding result (mouse PDGFRβ): no binding (tested: 100 nM)

B5: C2 (scFv, V domains shown)
VH: QVQLVQSGAEVKKPGSSVRVSCKASGGTFSRHAISWVRQAPGQGLEWIGGILPILKTPNYAQRFQGRVTINADESTSTVYMEMSSLRSEDTAVYYCATHGGDRSYWGQGTLVTVSS
VL: DIQMTQSPSSLSASVGDRVAIACRPSQDIGTDLGWYQQKPGKAPKLLIFDSSTLQSGVPSRFSGSLSGTDFILTITNLQPEDFATYYCLQDYSFPYTFGQGTKLQIKR
notes: also called scFv XB2202-C2; XB2202/C2 scFv
Kd (human PDGFRβ [9]): 0.018 nM

Next, values leading:

Kd [1]: 1.08 nM
koff [1]: 0.00692 s⁻¹
kon [1]: 6.41e+06 M⁻¹ s⁻¹
Kd [2]: 0.093 nM
koff [2]: 0.000927 s⁻¹
Kd [3]: 0.0933 nM
kon [4]: 9.94e+06 M⁻¹ s⁻¹
B1: XB2708 VH domain (other)
VH: QVQLVQSGGGVVQPGGSLRLSCAASGFTSRSYGMHWVRQAPGKGLEWVAFILFDGNNKYYADSVKGRFTISSDNSKNTLYLQMNSLRAEDTAVYYCATHGGDRSYWGQGTLVTVSS
notes: Isolated (unpaired) human VH domain, framework-shuffled derivative of XB1511; produced in E. coli for SPR

IC50 [7]: < 5 nM
Kd [8]: 0.227 nM
koff [8]: 0.00295 s⁻¹
kon [8]: 1.3e+07 M⁻¹ s⁻¹
Kd [1]: 0.925 nM
koff [1]: 0.00289 s⁻¹
kon [1]: 3.13e+06 M⁻¹ s⁻¹
Kd [2]: 0.249 nM
koff [2]: 0.00186 s⁻¹
Kd [4]: 0.243 nM
koff [4]: 0.00175 s⁻¹
kon [4]: 7.19e+06 M⁻¹ s⁻¹
Kd (human PDGFRβ [9]): 0.234 nM
B3: XB2202 VH domain (other)
VH: B5 VH
notes: as for B1

binding result (human PDGFRβ [10]): no binding
B4: A5 (scFv, V domains shown)
VH: B5 VH
VL: SYELTQPPSASASLGASVTLTCTVSSGYRSYEVDWFQQRPGKGPRFVMRVGTGGIVGSRGDGIPDRFSVWGSGLNRYLTIEDIQEEDESDYYCGADHGSGSNLVYVFGTGTKVTVL
notes: also called XB2202/A5 scFv
